This note sets out measurements from paper PMC10397247.

One experiment has as its target T1, 4H510-AA.
T1 chain: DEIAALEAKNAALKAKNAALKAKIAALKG
The experiment can be described thus: two-hybrid library CCmax.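 Note: natural log of median RNA to DNA barcode read ratio; higher means stronger binding.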 Particulars: mean of both orientations.

For the next experiment, the target named is T2, 4H_APH.
T2 chain: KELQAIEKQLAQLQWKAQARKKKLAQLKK
The experiment can be described thus: two-hybrid library CCmax.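 Note: natural log of median RNA to DNA barcode read ratio; higher means stronger binding.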 Particulars: mean of both orientations.

The next experiment deals with T3, O13-AA.
T3 chain: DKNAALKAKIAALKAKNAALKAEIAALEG
The experiment can be described thus: two-hybrid library CCmax.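 Note: natural log of median RNA to DNA barcode read ratio; higher means stronger binding.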 The following applies: mean of both orientations.

Another experiment concerns the target T4, 4H_BCR.
T4 chain: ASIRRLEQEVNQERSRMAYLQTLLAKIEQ
The experiment can be described thus: two-hybrid library CCmax.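 Note: natural log of median RNA to DNA barcode read ratio; higher means stronger binding.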 The following applies: mean of both orientations.

For another experiment, the target named is T5, O11-AA.
T5 chain: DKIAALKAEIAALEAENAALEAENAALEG
Description: two-hybrid library CCmax.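 Note: natural log of median RNA to DNA barcode read ratio; higher means stronger binding.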 Particulars: mean of both orientations.

For a further experiment, the target named is T6, 4H43-AA.
T6 chain: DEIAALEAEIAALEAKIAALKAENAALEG
The experiment can be described thus: two-hybrid library CCmax.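 Note: natural log of median RNA to DNA barcode read ratio; higher means stronger binding.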

For another experiment, the target named is T7, O14-AA.
T7 chain: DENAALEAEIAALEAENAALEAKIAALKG
The experiment can be described thus: two-hybrid library CCmax. Particulars: mean of both orientations.

A further experiment deals with T8, 4H451-AA.
T8 chain: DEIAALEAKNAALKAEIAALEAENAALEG
Description: two-hybrid library CCmax. The following applies: mean of both orientations.

The next experiment has as its target GCN2_T. Description: two-hybrid library CCmax.
The target of a further experiment is T9, 4H391-AA.
T9 chain: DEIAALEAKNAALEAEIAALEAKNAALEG
The experiment can be described thus: two-hybrid library CCmax. The following applies: mean of both orientations.

The next experiment addresses T10, 4H497-AA.
T10 chain: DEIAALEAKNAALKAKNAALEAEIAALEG
Description: two-hybrid library CCmax. Particulars: mean of both orientations.

Another experiment concerns the target T11, 4H3417-AA.
T11 chain: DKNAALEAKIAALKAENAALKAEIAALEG
Description: two-hybrid library CCmax. The following applies: mean of both orientations.

A further experiment deals with T12, 4H3066-AA.
T12 chain: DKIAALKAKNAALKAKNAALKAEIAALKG
Description: two-hybrid library CCmax.

For the next experiment, the target named is T13, 4H3102-AA.
T13 chain: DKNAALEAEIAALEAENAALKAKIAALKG
The experiment can be described thus: two-hybrid library CCmax. The following applies: mean of both orientations.

The target of a further experiment is T14, 4H3121-AA.
T14 chain: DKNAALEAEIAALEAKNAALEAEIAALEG
The experiment can be described thus: two-hybrid library CCmax. The following applies: mean of both orientations.

For the next experiment, the target named is T15, 4H3446-AA.
T15 chain: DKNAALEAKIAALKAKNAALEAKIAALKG
The experiment can be described thus: two-hybrid library CCmax. The following applies: mean of both orientations.

In another experiment the target is T16, 4H3591-AA.
T16 chain: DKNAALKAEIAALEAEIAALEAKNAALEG
Description: two-hybrid library CCmax. The following applies: mean of both orientations.

The target of another experiment is T17, 4H3920-AA.
T17 chain: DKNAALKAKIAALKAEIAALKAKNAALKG
The experiment can be described thus: two-hybrid library CCmax. Particulars: mean of both orientations.

In another experiment the target is T18, 4H478-AA.
T18 chain: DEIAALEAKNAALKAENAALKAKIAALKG
Description: two-hybrid library CCmax. Particulars: mean of both orientations.

The target in a further experiment is T19, 4H428-AA.
T19 chain: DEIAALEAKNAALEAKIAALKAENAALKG
The experiment can be described thus: two-hybrid library CCmax. The following applies: mean of both orientations.

A further experiment has as its target T20, 4H3939-AA.
T20 chain: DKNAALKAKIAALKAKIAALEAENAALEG
The experiment can be described thus: two-hybrid library CCmax. The following applies: mean of both orientations.

The target in another experiment is T21, 4H3666-AA.
T21 chain: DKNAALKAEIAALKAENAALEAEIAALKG
Description: two-hybrid library CCmax. Particulars: mean of both orientations.

The next experiment addresses T22, 4H656-AA.
T22 chain: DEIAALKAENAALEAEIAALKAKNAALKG
The experiment can be described thus: two-hybrid library CCmax. Particulars: mean of both orientations.

Another experiment deals with T23, 4H675-AA.
T23 chain: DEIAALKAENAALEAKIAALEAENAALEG
Description: two-hybrid library CCmax. Particulars: mean of both orientations.

In the next experiment the target is T24, 4H3628-AA.
T24 chain: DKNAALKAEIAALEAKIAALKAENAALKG
Description: two-hybrid library CCmax. Particulars: mean of both orientations.

The target of the next experiment is T25, 4H3709-AA.
T25 chain: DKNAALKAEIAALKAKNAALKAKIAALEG
The experiment can be described thus: two-hybrid library CCmax. Particulars: mean of both orientations.

A further experiment concerns the target T26, 4H971-AA.
T26 chain: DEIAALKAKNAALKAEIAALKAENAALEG
Description: two-hybrid library CCmax. Particulars: mean of both orientations.

Another experiment deals with T27, 4H662-AA.
T27 chain: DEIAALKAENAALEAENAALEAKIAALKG
The experiment can be described thus: two-hybrid library CCmax. The following applies: mean of both orientations.

The target of another experiment is T28, 4H369-AA.
T28 chain: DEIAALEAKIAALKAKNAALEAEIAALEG
Description: two-hybrid library CCmax.

The next experiment addresses T29, 4H55-AA.
T29 chain: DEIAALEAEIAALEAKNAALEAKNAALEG
Description: two-hybrid library CCmax. Particulars: mean of both orientations.

In another experiment the target is T30, 4H481-AA.
T30 chain: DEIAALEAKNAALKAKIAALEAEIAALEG
Description: two-hybrid library CCmax. The following applies: mean of both orientations.

Another experiment deals with T31, 4H3922-AA.
T31 chain: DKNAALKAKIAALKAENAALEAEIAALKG
The experiment can be described thus: two-hybrid library CCmax. The following applies: mean of both orientations.

Another experiment addresses T32, 4H4033-AA.
T32 chain: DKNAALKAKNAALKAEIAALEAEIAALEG
The experiment can be described thus: two-hybrid library CCmax. Particulars: mean of both orientations.

For a further experiment, the target named is T33, 4H3940-AA.
T33 chain: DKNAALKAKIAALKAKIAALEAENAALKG
The experiment can be described thus: two-hybrid library CCmax. Particulars: mean of both orientations.

The target in the next experiment is T34, 4H87-AA.
T34 chain: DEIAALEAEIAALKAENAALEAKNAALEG
The experiment can be described thus: two-hybrid library CCmax. The following applies: mean of both orientations.

A further experiment deals with T35, 4H775-AA.
T35 chain: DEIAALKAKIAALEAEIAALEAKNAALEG
The experiment can be described thus: two-hybrid library CCmax. The following applies: mean of both orientations.

The next experiment deals with T36, 4H816-AA.
T36 chain: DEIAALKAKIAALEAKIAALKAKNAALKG
The experiment can be described thus: two-hybrid library CCmax. The following applies: mean of both orientations.

In another experiment the target is T37, 4H390-AA.
T37 chain: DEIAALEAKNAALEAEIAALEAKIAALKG
The experiment can be described thus: two-hybrid library CCmax.

In a further experiment the target is T38, 4H72-bN.
T38 chain: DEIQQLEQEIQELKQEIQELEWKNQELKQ
The experiment can be described thus: two-hybrid library CCNG1.

A further experiment addresses T39, 4H492-bA.
T39 chain: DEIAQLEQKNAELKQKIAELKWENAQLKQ
Description: two-hybrid library CCNG1.

For another experiment, the target named is T40, 4H741-bA.
T40 chain: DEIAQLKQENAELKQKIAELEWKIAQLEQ
Description: two-hybrid library CCNG1.

The next experiment deals with T41, 4H477-bA.
T41 chain: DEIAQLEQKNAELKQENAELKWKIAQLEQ
Description: two-hybrid library CCNG1.

B1: 4H43-AA (peptide)
chain: DEIAALEAEIAALEAKIAALKAENAALEG
B1: the interaction score with 4H510-AA was -0.823; with 4H_APH, -0.887; with O13-AA it was 0.246; with 4H_BCR, -1.44; with O11-AA it was -0.943; with 4H43-AA, 1.54. In addition, the interaction score in the experiment with O14-AA is -0.845; in the experiment with 4H451-AA, -1.31; in the experiment with GCN2_T, -1.41.

B2: 4H3066-AA (peptide)
chain: DKIAALKAKNAALKAKNAALKAEIAALKG
Regarding B2, the interaction score with 4H391-AA is -1.09; with 4H497-AA, -0.971; with 4H3417-AA, -2.18; with 4H3066-AA, -0.506; in the experiment with 4H3102-AA, 0.0998; in the experiment with 4H3121-AA, -0.941. The interaction score in the experiment with 4H3446-AA is -1.7; with 4H3591-AA, -1.59; with 4H3920-AA, -1.87; with 4H478-AA, 1.25; with 4H428-AA, -1.26; in the experiment with 4H3939-AA, -2.16. The interaction score with 4H3666-AA was 0.0105; with 4H656-AA it was 0.231; with 4H675-AA, -1.19; with 4H3628-AA, -1.85; in the experiment with 4H3709-AA, -1.94; with 4H971-AA, -1.81.

B3: 4H369-AA (peptide)
chain: DEIAALEAKIAALKAKNAALEAEIAALEG
With B3, the interaction score is 1.3 with 4H662-AA; -0.526 with 4H369-AA; -0.33 with 4H55-AA; -0.912 with 4H481-AA; 0.000191 with 4H3922-AA; -0.678 with 4H4033-AA.

B4: 4H390-AA (peptide)
chain: DEIAALEAKNAALEAEIAALEAKIAALKG
For the molecule B4, the interaction score is 1.57 with 4H510-AA; -0.115 with 4H3940-AA; -1.41 with 4H87-AA; -0.316 with 4H775-AA; 0.183 with 4H816-AA; 2.23 in the experiment with 4H390-AA.

B5: 4H477-bA (peptide)
chain: DEIAQLEQKNAELKQENAELKWKIAQLEQ
As to B5, the interaction score in the experiment with 4H72-bN is -3.66; with 4H492-bA, -0.749; with 4H741-bA, -1.37; with 4H477-bA, -0.249.
